Reference: patent US8673594B2, “Methods for stimulating nervous system regeneration and repair by regulating arginase I and polyamine synthesis” (Research Foundation of City University of New York, priority 2000, dated 2014)

Assays:
[1] = tested on: ArgI protein in cerebellar neurons; assay: Arginase I protein level in cerebellar neurons by SDS-PAGE and Western blot; type: cell-based; conditions: for increase in amount of ArgI protein: after 1 hour of exposure; for increase in amount of ArgI protein / time of peak of ArgI protein increase post-treatment / time for which ArgI protein increase was sustained: dbcAMP 1 mM or BDNF 200 ng/ml; for time for which ArgI protein increase was sustained: declining by 24 hours
Method: Cerebellar neurons were untreated (−) or exposed to either (A) 200 ng/ml BDNF or (B) 1 mM dbcAMP for 1 hour (h), 3 h, 21 h or 24 h; or (C) 200 ng/ml GDNF (+) for 1 h, 3 h or 5 h and the cells lysed in the presence of protease inhibitors. Total protein (23 μg) was subjected to SDS-polyacrylamide gel (12%) electrophoresis (SDS-PAGE), transferred to nitrocellulose membrane and immunostained with antibody to Arg I. The arrows indicate the position of ArgI polypeptide.
We next assessed the expression of ArgI in cerebellar neurons at the protein level. After exposure of cerebellar neurons to either dbcAMP or BDNF for various times, neurons were lysed, proteins were extracted and the extracted proteins were separated by SDS PAGE before being transferred to membrane and immunostained with a polyclonal antibody against arginase I (see Example 2).
Cerebellar neurons were untreated (−) or exposed to 200 ng/ml GDNF for 1 h, 3 h or 5 h and the cells lysed in the presence of protease inhibitors. Total protein (23 μg) was subjected to SDS-polyacrylamide gel (12%) electrophoresis (SDS-PAGE), transferred to nitrocellulose membrane and immunostained with antibody to Arg I. As shown in FIG. 5(C), the amount of ArgI polypeptide increased at least two-fold after treatment of neurons with GDNF.
Neurons were lysed, proteins were extracted and the extracted proteins (23 μg of total protein per lane) separated by SDS-polyacrylamide gel (12%) electrophoresis (SDS-PAGE) according to well-known procedures (see Ausubel et al., supra). Separated proteins were transferred to nitrocellulose membrane and immunostained with antibody to Arg I. The results are shown in FIG. 5, where the arrows indicate the position of ArgI polypeptide. Polyclonal antibodies were generated against the recombinant arginase of Cavalli at al., Biochemistry, 33, pp. 10652-657 (1994), which described the recombinant expression and purification of rat liver arginase I in E. coli. Polyclonal antibodies were generated essentially according to the procedures of Hanly et al., ILAR Journal, 37, pp. 141-152 (1995), incorporated herein by reference.
For the measurement of arginase I protein levels by immunoblot, cells were harvested and washed with ice cold PBS and then resuspended (100 μl/10^7 cells) in ice cold extraction buffer containing 50 mM Tris-HCl, pH 7.4, 150 mM NaCl, 2 mM EDTA, Triton-X 100, 1 mM phenylmethylsulfonyl fluoride (PMSF), 10 micrograms/ml leupeptin, 1 micromolar pepstatin, 1 mM N-ethylmaleimide (NEM), 2 mM Na3VO4, 20 mM sodium pyrophosphate, and 50 mM NaP). Lysates were centrifuged at 15,000 RPM at 4 degrees centigrade for 30 minutes. The clear cytosol was separated from the insoluble pellet fraction and immediately used for immunoblot. The supernatants were removed carefully and the protein concentration was quantified by the Bradford method. Lysates were mixed with boiling Laemmli's buffer (1× is 100 mM Tris-HCl, pH 6.8, 4% SDS, 200 mM dithiothreitol, 20% glycerol, 2% SDS, 0.2% bromophenol blue, 10 micrograms/ml aprotinin, 10 micrograms/ml leupeptin). The samples were boiled for 10 minutes at 100° C. and centrifuged at 15,000 rpm for 10 seconds. Approximately 30 micrograms of protein was electrophoresed under reducing conditions on 10% SDS-polyacrylamide gels and transferred to nitrocellulose membrane. Membranes were blocked in 5% skim milk in TBST (Tris, pH 7.4; 150 mM NaCl; 0.05% Tween 20) for 30 minutes at room temperature. Blots were probed with primary antibodies overnight at 4° C., followed by incubation with anti-rabbit or anti-mouse IgG conjugated with horseradish peroxidase (Bio-Rad, Hercules, Calif.) for 1 hour. Signals were detected using the ECL system (Amersham Corp, Arlington, Heights, Ill.).

[2] = tested on: cerebellar neurons on purified CNS myelin; assay: Neurite outgrowth of cerebellar neurons on purified CNS myelin substrate; type: cell-based; conditions: for block of myelin-dependent inhibition in the presence of a transcriptional inhibitor: dbcAMP 1 mM or BDNF 200 ng/ml priming, with DRB 5 μM; for block of inhibition by myelin after priming: neurons primed with neurotrophin
Method: Isolated cerebellar neurons at a density of 20,000 neurons per well were plated onto a substrate of purified CNS myelin and cultured overnight before being fixed and immunostained for GAP43. The length of the longest neurite per neuron from 180-200 neurons was measured and results are the average length+/−SEM. Where indicated, dibutyryl cAMP (dbcA) at 1 mM in the presence or absence of the inhibitor of transcription, 5,6-dichloro-1-b-D-ribofuranosylbenzimidazole (DRB) at 5 μM, was added to each culture. (B) Cerebellar neurons (1×10^6) were plated onto poly-L-lysine and cultured overnight with brain-derived neurotrophic factor (BDNF) at 200 ng/ml, (termed priming) in the presence or absence of DRB at 5 μM, before being transferred to the CNS myelin substrate.
The longest neurite from at least 180-200 neurons were measured. Results are shown as the mean neurite length+/−SEM.
After further incubation, neurons were fixed and immunostained for GAP43. The longest neurite from each neuron for 180-200 neurons were measured. Results are shown as the mean neurite length+/−SEM.
Primed neurons were transferred to either MAG-expressing or control CHO cells (A) or a substrate of CNS myelin (B) for further incubation. Neurons were then fixed and immunostained for GAP43. The longest neurite from each neuron was measured for 180-200 neurons.
Trypsinization was stopped by addition of 5 ml DMEM containing 10% fetal calf serum (FCS) and cells were centrifuged at 800 rpm for 6 min. […] The ganglia were triturated with a fire-polished Pasteur pipette. […] Cells were counted with a Coulter counter.
The neurite outgrowth assay was carried out by adding 5×10^4 neurons to the immobilized myelin substrate or 2×10^4 neurons to the CHO cell monolayers. Briefly, confluent monolayers of control and MAG-expressing CHO cells were established over a 24-hour (h) period in individual chambers of an 8-well tissue culture slide (Lab-Tek). […] Culture medium was SATO containing 2% FCS.
GAP43 antibody was detected by staining with Texas Red and arginase antibody was detected with anti-biotin secondary antibody followed by Texas Red-conjugated streptavidin.
After periods of time as indicated, the co-cultures were fixed for 30 min with 4% paraformaldehyde and permeabilized with ice-cold methanol for 2 min. […] After three more washes, the slides were mounted in Permfluor (Baxter) and viewed with a Zeiss fluorescent microscope. The length of the longest neurite for each GAP43-positive neuron was determined using the Biological Detection System image analysis program (Pittsburgh).

Molecule | increase in amount of ArgI protein [1] | time of peak of ArgI protein increase post-treatment [1] | time for which ArgI protein increase was sustained [1] [h] | block of inhibition of neurite growth by myelin ([2]; dbcAMP 1 mM added directly to the culture) | block of myelin-dependent inhibition in the presence of a transcriptional inhibitor [2] | block of inhibition by myelin after priming [2] | increase in amount of ArgI polypeptide ([1]; 200 ng/ml GDNF for 1 h, 3 h or 5 h)
CCCC(=O)Nc1ncnc2c1ncn2[C@@H]1O[C@@H]2COP(=O)(O)O[C@H]2[C@H]1OC(=O)CCC [dbcAMP, dibutyryl cAMP] | at least two-fold | around 3 hours | 21 | blocks the inhibition of neurite growth | completely lost |  | 
BDNF: Brain-derived neurotrophic factor, Trk-family neurotrophin (protein, UniProt P23560 19-247, looked up) Neurotrophic factor BDNF …: APMKEANIRGQGGLAYPGVRTHGTLESVNGPKAGSRGLTSLADTFEHVIEELLDEDQKVRPNEENNKDADLYTSRVMLSSQVPLEPPLLFLLEEYKNYLDAANMSMRVRRHSDPARRGELSVCDSISEWVTAADKKTAVDMSGGTVTVLEKVPVSKGQLKQYFYETKCNPMGYTKEGCRGIDKRHWNSQCRTTQSYVRALTMDSKKRIGWRFIRIDTSCVCTLTIKRGR | at least two-fold | around 3 hours | 21 |  | completely lost | overcomes inhibition of regeneration by MAG and myelin | 
GDNF: glial cell line-derived neurotrophic factor (protein, UniProt P39905 78-211, looked up) Glial cell line-derived …: SPDKQMAVLPRRERNRQAAAANPENSRGKGRRGQRGKNRGCVLTAIHLNVTDLGLGYETKEELIFRYCSGSCDAAETTYDKILKNLSRNRRLVSDKVGQACCRPIAFDDDLSFLDDNLVYHILRKHSAKRCGCI |  |  |  |  |  | overcomes inhibition of regeneration by MAG and myelin | at least two-fold
